{"source": "patent US20210388102A1", "about": "(IMMUNOGEN, published 2021)", "binders": {"B1": {"name": "hMAB-A(2I.2)-DGN549 (antibody, human IgG1, kappa)", "heavy": "not shown", "light": "DIVMTQSPDSLAVSLGERATISCKASQSVDYSGDSYMNWYQQKPGQPPKLLIYAASDLESGIPARFSGSGSGTDFTLTISSLEPEDFATYYCQQSHEDPFTFGQGTKLEIKRTVAAPSVFIFPPSDEQLKSGTASVVCLLNNFYPREAKVQWKVDNALQSGNSQESVTEQDSKDSTYSLSSTLTLSKADYEKHKVYACEVTHQGLSSPVTKSFNRGEC", "modifications": "lysine-linked DGN549, sites not given; DGN549-L (compound D2) linked to lysine residues of the antibody, sites not given; average 2.8 mol DGN549/mol antibody"}, "B2": {"name": "chMAB-A-sSPDB-DM4 (antibody, V domains shown)", "VH": "QVQLQQPGAELVKPGASVKLSCKASGYTFTSYWMHWVKQRPGQGLEWIGEIIPINGHTNYNEKFKSKATLTLDKSSSTAYMQLSSLASEDSAVYYCARGGYYYYGSRDYFDYWGQGTTLTVSS", "VL": "DIVLTQSPASLAVSLGQRATISCKASQSVDYDGDSYMNWYQQIPGQPPKLLIYAASDLESGIPARFSGSGSGTDFTLNIHPVEEEDAATYYCQQSHEDPFTFGGGTKLEIK", "modifications": "lysine-linked DM4, sites not given; DM4 linked through sulfo-SPDB to lysine residues of the antibody, sites not given; average 3.4 mol DM4/mol antibody"}, "B3": {"name": "chMAB-A-DGN549 (antibody, V domains shown)", "VH": "B2 VH", "VL": "B2 VL", "modifications": "lysine-linked DGN549, sites not given; DGN549-L (compound D2) linked to lysine residues of the antibody, sites not given; average 2.7 mol DGN549/mol antibody"}, "B4": {"name": "hMAB-A(2.2)-DGN549 (antibody, human IgG1, kappa, V domains shown)", "VH": "EVQLVESGGGLVKPGGSLRLSCAASGFTFSSYWMHWVRQAPGKGLEWVGEIIPIFGHTNYNEKFKSRFTISLDNSKNTLYLQMGSLRAEDTAVYYCARGGYYYYGSRDYFDYWGQGTTVTVSS", "VL": "DIVMTQSPDSLAVSLGERATISCKASQSVDYSGDSYMNWYQQKPGQPPKLLIYAASDLESGIPARFSGSGSGTDFTLTISSLEPEDFATYYCQQSHEDPFTFGQGTKLEIKR", "modifications": "lysine-linked DGN549, sites not given; DGN549-L (compound D2) linked to lysine residues of the antibody, sites not given; average 2.7 mol DGN549/mol antibody"}, "B5": {"name": "hMAB-A(2C.2)-sSPDB-DM4 (antibody, human IgG1, kappa, V domains shown)", "VH": "B4 VH with G105P, S106R, R107F, D108G, Y109W, F110L", "VL": "B4 VL", "modifications": "lysine-linked DM4, sites not given; DM4 linked through sulfo-SPDB to lysine residues of the antibody, sites not given; average 3.2 mol DM4/mol antibody"}, "B6": {"name": "hMAB-A (2B.2) (antibody, V domains shown)", "VH": "B4 VH with G105I, S106G, R107K, D108G, Y109V, F110L", "VL": "DIVMTQSPDSLAVSLGERATISCKASQSVDYSGDSYMNWYQQKPGQPPKLLIYAASDLESGIPARFSGSGSGTDFTLTISSLEPEDFATYYCQQSHEDPFTFGQGTKLEIK", "notes": "also called MAB-A VH(2B); MAB-A VH(2B.2)"}, "B7": {"name": "hMAB-A(2C.2)-DGN549 (antibody, human IgG1, kappa, V domains shown)", "VH": "B4 VH with G105P, S106R, R107F, D108G, Y109W, F110L", "VL": "B4 VL", "modifications": "lysine-linked DGN549, sites not given; DGN549-L (compound D2) linked to lysine residues of the antibody, sites not given; average 2.8 mol DGN549/mol antibody"}, "B8": {"name": "hMAB-A (2D.2) (antibody, V domains shown)", "VH": "B4 VH with G105T, S106G, R107K, D108G, Y109V, F110L", "VL": "B6 VL", "notes": "also called MAB-A VH(2D); MAB-A VH(2D.2)"}}, "key": {"[1]": {"molecular_target": "T1, human ADAM9 (huADAM9) on cells (human, UniProt Q13443 206-819)", "T1 construct": "The pro-domain is said to be cleaved (Arg-205/Ala-206) in the mature protein; also called Cho-K/huADAM9; Cho-K/hu ADAM9.2", "T1 sequence": "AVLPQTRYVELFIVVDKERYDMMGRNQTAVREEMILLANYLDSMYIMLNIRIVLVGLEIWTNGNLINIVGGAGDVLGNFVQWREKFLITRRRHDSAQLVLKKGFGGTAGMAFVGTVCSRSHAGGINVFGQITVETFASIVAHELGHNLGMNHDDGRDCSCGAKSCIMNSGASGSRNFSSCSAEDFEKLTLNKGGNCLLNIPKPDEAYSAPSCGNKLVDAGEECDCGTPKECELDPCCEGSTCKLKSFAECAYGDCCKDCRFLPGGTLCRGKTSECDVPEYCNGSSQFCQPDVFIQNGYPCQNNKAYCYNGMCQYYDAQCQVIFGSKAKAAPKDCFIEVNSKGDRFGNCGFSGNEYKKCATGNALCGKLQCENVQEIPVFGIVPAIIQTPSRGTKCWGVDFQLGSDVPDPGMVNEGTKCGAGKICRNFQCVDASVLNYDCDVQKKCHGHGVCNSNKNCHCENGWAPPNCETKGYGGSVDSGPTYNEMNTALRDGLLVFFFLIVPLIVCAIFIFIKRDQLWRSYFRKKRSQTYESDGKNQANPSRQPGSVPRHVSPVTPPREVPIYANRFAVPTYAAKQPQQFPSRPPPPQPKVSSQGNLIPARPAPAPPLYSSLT", "experiment": "FACS, 300-19 cells expressing human ADAM9", "method": "(§1) To evaluate the consequence of conjugation on antigen binding, the relative binding affinity of each anti-ADAM9 immunoconjugate and its respective unconjugated antibody to ADAM9 was determined by FACS analysis on 300-19 cells ectopically-expressing either human ADAM9 or cynomolgus ADAM9. Briefly, the ADAM9-expressing 300-19 cells were incubated with dilution series of anti-ADAM9 antibodies or immunoconjugates for 30 min @ 4° C. in FACS buffer (PBS, 0.1% BSA, 0.01% NaN₃), Samples were then washed and incubated with fluorescently-labeled secondary antibody for 30 minutes at 4° C. The normalized mean of fluorescence intensity at each concentration was plotted and the EC50 of binding was calculated using a nonlinear regression analysis (GraphPad Prims 4.0)."}, "[2]": {"molecular_target": "T2, cynomolgus monkey ADAM9 (cynoADAM9) on cells (cynomolgus monkey, UniProt Q13443 206-819 (human entry))", "T2 construct": "also called Cho-K/cynoADAM9 clone 2; Cho-K/cynoADAM9 clone #16", "T2 chain": "T1 sequence with V69A, Q130H, G421D, V441I, S521R, G546V, A569P", "experiment": "FACS, 300-19 cells expressing cynomolgus ADAM9"}, "[3]": {"molecular_target": "T2, cynomolgus monkey ADAM9 (cynoADAM9) on …", "experiment": "FACS, EC50 on 300-19 cynoADAM9 cells over EC50 on 300-19 huADAM9 cells", "method": "as §1"}, "[4]": {"molecular_target": "T1, human ADAM9 (huADAM9) on cells", "experiment": "cell-based or functional assay"}, "[5]": {"molecular_target": "T3, His-tagged soluble human ADAM9 (shADAM9-His) (human, UniProt Q13443 206-697)", "T3 construct": "Contains an extracellular portion of human ADAM9; also called huADAM9-His; His peptide-tagged soluble huADAM9", "T3 sequence": "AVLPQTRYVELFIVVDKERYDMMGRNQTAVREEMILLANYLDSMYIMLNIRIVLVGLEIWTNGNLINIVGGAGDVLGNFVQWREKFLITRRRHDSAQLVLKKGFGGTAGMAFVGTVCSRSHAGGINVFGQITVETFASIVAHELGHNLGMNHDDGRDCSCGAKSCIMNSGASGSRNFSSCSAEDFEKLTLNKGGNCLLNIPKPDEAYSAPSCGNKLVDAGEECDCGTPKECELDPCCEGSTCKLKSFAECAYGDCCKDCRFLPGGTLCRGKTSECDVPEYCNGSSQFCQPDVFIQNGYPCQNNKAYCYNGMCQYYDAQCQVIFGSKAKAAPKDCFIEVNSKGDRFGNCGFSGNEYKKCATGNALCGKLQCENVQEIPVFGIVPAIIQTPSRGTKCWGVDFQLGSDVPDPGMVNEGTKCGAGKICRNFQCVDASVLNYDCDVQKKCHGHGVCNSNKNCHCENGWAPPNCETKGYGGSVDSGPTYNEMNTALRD", "experiment": "SPR (BIACORE), antibody captured, huADAM9-His in flow", "method": "The kinetics of binding were determined via BIACORE® analysis binding (normalized 1:1 Langmuir binding model)."}}, "note": "Positions count from the first letter of the chain named.", "data": [{"binder": "B1", "values": [{"measurement": "EC50", "setting": "[1]", "value": 2.25, "unit": "nM"}, {"measurement": "EC50", "setting": "[2]", "value": 6.6, "unit": "nM"}, {"measurement": "cyno/human (ratio of EC50)", "setting": "[3]", "value": 3}]}, {"binder": "B2", "values": [{"measurement": "EC50", "setting": "[1]", "value": 0.95, "unit": "nM"}, {"measurement": "EC50", "setting": "[2]", "value": 275, "unit": "nM"}, {"measurement": "cyno/human (ratio of EC50)", "setting": "[3]", "value": 290}]}, {"binder": "B3", "values": [{"measurement": "EC50", "setting": "[1]", "value": 1.24, "unit": "nM"}, {"measurement": "EC50", "setting": "[2]", "value": 153, "unit": "nM"}, {"measurement": "cyno/human (ratio of EC50)", "setting": "[3]", "value": 123}]}, {"binder": "B4", "values": [{"measurement": "Fold-specificity (IC50 control ADC/IC50 anti-ADAM9 ADC), A498", "setting": "[4]", "value": "> 1000", "unit": "fold"}, {"measurement": "Fold-specificity (IC50 control ADC/IC50 anti-ADAM9 ADC), DLD-1", "setting": "[4]", "value": "> 1000", "unit": "fold"}, {"measurement": "Fold-specificity (IC50 control ADC/IC50 anti-ADAM9 ADC), DU145", "setting": "[4]", "value": "> 1000", "unit": "fold"}, {"measurement": "Fold-specificity (IC50 control ADC/IC50 anti-ADAM9 ADC), HPAF2", "setting": "[4]", "value": "> 1000", "unit": "fold"}, {"measurement": "Fold-specificity (IC50 control ADC/IC50 anti-ADAM9 ADC), HS578T", "setting": "[4]", "value": "> 1000", "unit": "fold"}, {"measurement": "Fold-specificity (IC50 control ADC/IC50 anti-ADAM9 ADC), IGROV1", "setting": "[4]", "value": "> 1000", "unit": "fold"}, {"measurement": "Fold-specificity (IC50 control ADC/IC50 anti-ADAM9 ADC), KATO III", "setting": "[4]", "value": "> 1000", "unit": "fold"}, {"measurement": "Fold-specificity (IC50 control ADC/IC50 anti-ADAM9 ADC), NCI-H1703", "setting": "[4]", "value": "> 1000", "unit": "fold"}, {"measurement": "In Vitro Cytotoxicity (IC50 nM), A498", "setting": "[4]", "value": 0.001, "unit": "nM"}, {"measurement": "In Vitro Cytotoxicity (IC50 nM), DLD-1", "setting": "[4]", "value": 0.01, "unit": "nM"}, {"measurement": "In Vitro Cytotoxicity (IC50 nM), DU145", "setting": "[4]", "value": 0.002, "unit": "nM"}, {"measurement": "In Vitro Cytotoxicity (IC50 nM), HPAF2", "setting": "[4]", "value": 0.043, "unit": "nM"}, {"measurement": "In Vitro Cytotoxicity (IC50 nM), HS578T", "setting": "[4]", "value": 0.009, "unit": "nM"}, {"measurement": "In Vitro Cytotoxicity (IC50 nM), IGROV1", "setting": "[4]", "value": 0.001, "unit": "nM"}, {"measurement": "In Vitro Cytotoxicity (IC50 nM), KATO III", "setting": "[4]", "value": 0.031, "unit": "nM"}, {"measurement": "In Vitro Cytotoxicity (IC50 nM), NCI-H1703", "setting": "[4]", "value": 0.002, "unit": "nM"}, {"measurement": "EC50", "setting": "[1]", "value": 1.55, "unit": "nM"}, {"measurement": "EC50", "setting": "[2]", "value": 22.3, "unit": "nM"}, {"measurement": "cyno/human (ratio of EC50)", "setting": "[3]", "value": 14}]}, {"binder": "B5", "values": [{"measurement": "EC50", "setting": "[1]", "value": 1.5, "unit": "nM"}, {"measurement": "EC50", "setting": "[2]", "value": 4.4, "unit": "nM"}, {"measurement": "cyno/human (ratio of EC50)", "setting": "[3]", "value": 3}]}, {"binder": "B6", "values": [{"measurement": "Kd", "setting": "[5]", "value": 0.6, "unit": "nM"}, {"measurement": "koff", "setting": "[5]", "value": 0.00039, "unit": "s⁻¹"}, {"measurement": "kon", "setting": "[5]", "value": 610000, "unit": "M⁻¹ s⁻¹"}]}, {"binder": "B7", "values": [{"measurement": "EC50", "setting": "[1]", "value": 1.99, "unit": "nM"}, {"measurement": "EC50", "setting": "[2]", "value": 5.6, "unit": "nM"}, {"measurement": "cyno/human (ratio of EC50)", "setting": "[3]", "value": 3}]}, {"binder": "B8", "values": [{"measurement": "Kd", "setting": "[5]", "value": 0.8, "unit": "nM"}, {"measurement": "koff", "setting": "[5]", "value": 0.00058, "unit": "s⁻¹"}, {"measurement": "kon", "setting": "[5]", "value": 690000, "unit": "M⁻¹ s⁻¹"}]}]}
